Laboratory results: the nanobody polyreactivity screen of Harvey et al. (2022)

Experiment: yeast display, Sf9 membrane polyspecificity reagent, FACS + sequencing; frameworks hold sequencing errors
Method in brief: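 Polyreactivity labels are assigned by the sorting gate from which each nanobody was recovered. The gates were low and high (top ~1%), set on anti-HA fluorescence for expression and streptavidin fluorescence for reagent binding. Before sorting, galactose-induced (36–48 hours) yeast display cells were stained for 1 hour at 4 °C with 10% biotinylated, detergent-solubilized Sf9 membrane reagent.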

Row | Sequence | polyreactivity (PSR sort gate)
1 | QVQLVESGGGLVQAGGSNRLSCAASGLTSFRYTMGWYRQAPGKDRELVAGISGSRGRTYYADSVKGRFTISRDNAKNTVYLQMNCMKAVDTAVYDCAAGWYTSHAKGKGGYWGQGTQVTVSS | high polyreactivity
2 | QVQLVESGGGLVQAGGSLRLSCAASGRTFVNNAMGRYREAPGKERELVAAITTSAGSTYYADSVKGRFTISRDNAKNTVYLQMNSLNPEDTAVYYCAAVVWKKRYFDLEYWGQGTQVTVSS | low polyreactivity
3 | QVQLVESGGGLVQAGGSLRLSCAASGITFYYYAMGWYRQAPGKERELVAAISTRDGNTYYADSVKGRFTISRDNAKNTVYLQMNSLKPEDTAVYYCAADYFRYYPYDYWGQGTQVTVSS | low polyreactivity
4 | QVQLVESGGGLVQAGGSLRLSCAASGSIFYGYAMGWYRQAPGKEREFVAGIDSSGGSTSYADSVKGRFTISRDNAKNTVYLQMNSLKPEDTAVYYCAKQIVSGRRVDRNDYWGQGTQVTVSS | low polyreactivity
5 | QVQLVESGRGLVQAGGSLRISCAPSGITFGRYVMGWYRQAPGKERELVAVISRGGSTNYADSVKGRFTIARDNAKNTDYLQMNSLKPEDSAVYYCAADEWIVHDGYYSSYYYWGQGTQVTVSS | low polyreactivity
6 | QVQLVESGGGLVQAGGSLRLSCAASGNIFVFYVMGWYRQAPGKERELVASISSTGNTYYADSVKGRFTISRDNAKNTVYLQMNSLKPEDTAVYYCAAEYYSIRYGPHSIEVYGMDYWGQGTQVTVSS | low polyreactivity
7 | QVQLVESGGGLVQAGGSLRLSCAASGSIFVDNAMGWYRQAPGTERELVAAINWSGGSTYYADSVKGRFTISRDNAKNTVYLQMNSLKPEDTAVYYCIAARPGQTWDEQSWYDYWGQGTQVTVSS | low polyreactivity
8 | QVQLVESGGGLVQAGGSLRLSCAASGNIFSAYAMGWYRQAPGKEREFVAAISYSGGNTYYADSVKGRFTISRDNAKNTVYLLMNSLKPEVSAVYYCAARVLNKYYRYGYWGQGTQVTVSS | high polyreactivity
9 | QVQLVESGGGIVQAGGSLRLSCAASGRTFRGNAMGWYRQAPGKERELVAAIRYRGGSTYYADSVKGRFTISRDNAKNTVYLQMNSLKPEDTAVYDCARRYTVHTQHYDYWGQGTEVTVSS | high polyreactivity
10 | QVQLVESGGGLVQAGGSLRLSCAASGITFGWNAMGWYRPAPGKERELVAAITEDGDSTYYADSVKGRFTISRDNAMNTVYLQMNSLKPEDTAGYYCAAEYYDVYTYVQYDSWGQGTQVTVSS | high polyreactivity
11 | QVQLVESGGGLVQAGGSLRLSCAASGPTFKRYAMGWYRQAPGKERELVAAITGTGAITYYADSVKGRFTISRDNAKNTVYLQMNSLKPEDTAVYYCAALGYYRYKYQASSNGFDYWGQGTQVTVSS | high polyreactivity
12 | QVQLVESGGGLVQAGGSLRLICAASGSTFGLNTMGWYRQAPGKDRELVAGITWSGGTTYYADSVKGRFTISRDNAKNTVYLQMNSLKPEDTAVYYCAAAVCDHYWYSRAYYYWGQGTQVTLSS | high polyreactivity
13 | QVQLVESGGGLVQAGGSLRISCAASGRTFYQYDMGWYRQAPGKERELVAAIDWSGGSTYYADSVKGRFTISRDNAKNTVYLQMNSLKPEDTAVYYCNADAYPHPVVGYDYWGQGTQVTVSS | low polyreactivity
14 | QVQLVESGGGLVQAGGSLRLSCAASGRTFSKYAMGWYRQAPGKERELVAAIRWSGGSTYYADSVKGRFTISRDNAKNTVYLQMNSLKPEDTAVYYCAKRSRGLKFDYWGQGTQVTVSS | high polyreactivity
15 | QVQLVESGGGLVQAGGSLRLSCAASGGIFRHNAMGWYRQAPGKEREFVAAISRSGGNTYYADSVKGRFTISRDNAKNTVYLQMNSLKPEDTAVYYCNKIEYDSWADHVYWGQGTQVTVSS | low polyreactivity
16 | QVQLVESGGGLVQAGGSLRLSCADSGSIFYGYTMGWYRQAPGKERELVAAISSSGGSTYYADSVKGRFTISRDNAKNTVYLQMNSLKPEDTAVYYCAAYVPYSPDHVEFNYWGQGTQVTVSS | high polyreactivity
17 | QVQLVESGGGLVQAGGSLRLSCAASGRTFAYYTMGWYRQAPGKERELVDAISSRGGRTYYADSVKGRFTISRDNAKNTVYLQMNSLKPEDTAVYYCAAVSHGVYYQYRRRYYSWGQGTQVTVSS | high polyreactivity
18 | QVQLVESGGGLVQAGGSLRISCAASGRIFSYNDMGWYRPAPGKERELVAAITGGGSTNYADSVKGRFTISRDNAKNTVYLQMNSLKPEDTAVYYCAARSWSDKYWGQGTQVTVSS | high polyreactivity
19 | QVQLVESGGGIVQAGGSLRLSCAASGRIIRYYAMGWYRQAPGKERELVAAITRGGSTNYADSVKGRFTISRDNAKNTVYLLMNSLKPEDTAVYYCATRQSWYPRWMDYWGQGTQVTVSS | high polyreactivity
20 | QVQLVESGGGLVQAGGSLRLICAASGSIFGNYVMGWYRQAPGKEMELVAGISTRGGSTYYADSVKGRFTISRDNAKNTVYLQMNCLKPEDTAVYYCAAVPASYRYPMYYWGQGTQVTVSS | low polyreactivity

Row | Sequence | polyreactivity (PSR sort gate)
21 | QVQLVESGGGLVQAGGSLRLSCAASGSTFQFYAMGWYRQAPGKERELVAAISVSGDRTYYADSVKGRFTISRDNAKNTVYLQMNSLKPEDTAVYYCAARYGPFKRRFDYWGQGTQVTVSS | high polyreactivity
22 | QDQHVESGGGLVQAGGSLRLSCAASGSTFPYYAMGWYRQAPGKERELVAAITSSGGSTYYADSVKGRFTISRVNAKNTVYLQMNSLKPEDTAVYYCANGYGPYRQMNYWGQGTQVTVSS | low polyreactivity
23 | QVQLVESGGGLVQAGGSLRLSCAASGRIFYSYAMGWYRQAPGKERELVAAITESGGSTNYADSVKGRFTISRDNAKNTVYLQMNSLKPEDTAVYYCNARYKLTFNLYNYWGQGTQVTVSS | low polyreactivity
24 | QVQLVESGGGLVQAGGSHRLSCAASGSTFDTYPMGWYRQEPGKERELVAAISRSGTSTYYADSVKGRFTISRDNAKNTVYLQMKSLKPEDTAVYYCAAYGPRVNGEIGREYYYWGQGTQVTVSS | low polyreactivity
25 | QVQLVESGGGLVQAGGSLRLSCAASGRTLDSNAMGWYRQAPGKERELVAAISSAGSTNYADSVKGRFTISRDNAKNTVYLQMNRLQPEDTAVYYCAADLIGSHDYWGQGTQVTVSS | low polyreactivity
26 | PVQLVESGGGVVQAGGSLRVSCAASGSIFYVYAMGWYRQAGGKEWELVAAINPSGGSTFYADSVKGRFTISRDNAKTTDYLQMNSLTPEHTAVYYCAAERYRYRSTDTMGYWGQGTQVTVSS | low polyreactivity
27 | QVQLVESGGGLVQAGGSLRLSCAASGRTFDGYAMGWYRPAPGKERELVAAITYTGGSTYYADSVKGRFTISRDNAKNTVYLQMNSLKPEDTAVYYCNALYAVYSDFADDYWGQGTQVTVSS | low polyreactivity
28 | QVQLVESGGGLVQAGGSLRLSCAASGSISDVYAMGSYRQAPGKETELVAAITSGASTYYADSVKGRFTISRDNAKNTVYLQMNSLKPEDTAVYYCAADSDSQWGMDYWGQGTQVTVSS | low polyreactivity
29 | QVQLVESWGGLVQAGGSLRLSCAASGSIFPWYAMGWYREAPGKERELVAAISKSGAGTYYADSVKGRFTISRDNAKNTVYLQMNSLKPEDTAVYYCNAVYRKTSYGYWGQGTQVTVSS | high polyreactivity
30 | QVQLVESGGGLVQAGGSLRLSCAASGSTFYYNVMGWYRQAPGKERELVAAITLSGGSTYADSVKGRFTISRDNAKNTVYLQMNSLKPEDTAVYYCAKKGRYGRWGYKFDYWGQGTQVTVSS | low polyreactivity
31 | QVQLVESGGGLVQAGGSLRLSCAASASISYYYAMGWYRQETGKERELVAAITRTGTTNYADSVKGRFTISRDNAKNTVYLQMNSLKPEDTAVYYCAKRSTGRLQSYNYRGQGTQVTVSS | low polyreactivity
32 | QVQLVESGGGLVQAGGSLRLSCAASGSIFRNYAMGWYRQAPGKERELVAVITYSGGNTYYADSVKGRFTISRDIAKNTVYLQMNSLKPEDSAVYYCAADYLVVAYGYRYLRHYYWGQGTQVTVSS | high polyreactivity
33 | QVQLVESGGGLVQAGGSLRLSCAASGLIFAHNTMGWYRQATGKERELVAAISATGDGNTYYADSLKGRFTISRDNAKNTVYLQMNSLKPEDTAVYYCNALYYDYYAEYYGESDYWGQGTQVTVSS | low polyreactivity
34 | QVQLVESGGGLVQAGGSLRLSCAASGITFTVYAMGWYRQAPGKERELVAAINSVSSTNYADSVKGRFTISRDNAKNTVYLQMNSLKPEVTAVYYCAASYRKLPDKKRYGYWGQGTKVTVSS | high polyreactivity
35 | QVQLVESGGGLVQAGGSLRLSCAASGFTFGRYAMGWYRPAPGKERELVPAISFSGGRTYYADSVKGRFTISRDNAKNTVYLQMNCMKPEDTAVYYCAARRSEEHVGRSTYARYDYWGQGTQVTVSS | high polyreactivity
36 | QVQLVESGGGLVQAGGSLRLSCAASGFIFTTNAMGWYRQAPGKERELVAAITRSGGSTYADSVKGRFTLSRDNAKNTVYLQMNSLKPEETAVYYCNADGYFWGQGTQVTVSS | low polyreactivity
37 | QFQLVESGGGLVQAGGTLRLSCAASRRIFIHYAMGLSRQAPGKERELVSAISASGGTTNYADSVKGRFTISRDNAKNTVYLQLKSQKQEDTAVYYCAAEGYRSWRGLLSRYYYWGQGTQVTVSS | high polyreactivity
38 | QVQLVESGGGLVQAGGSLSLSCPASGFTFPPYTMGWSRQAPGKEREFVATITKSGGSTYYADSVKGRFTISRDNAKNTVYLQMNSLKPEDTAVYYCNVVWQYSTYVRYNYWGQGTQVTVSS | low polyreactivity
39 | QVQLVESGGGLVQAGGSLRLSCAASGSTFRYYGMGWYRQAPGKERELVAAITWSSGSTFYADSVKGRFTISRDNAKNTVYLQMNSLKPEDTAVYYCAKTWWTRLKTKSLHFGYWGQGTQVTVSS | high polyreactivity
40 | QVQLVESGGGLVQAGGSLRLSCAASGRIFKRNAMGWYRQAPGKERELVATISGSGGSTYYADSVKGRFTISRDNAKNTVYIQMNRLQPEDTAVYYCSATGFFARLSTIYYYWGQGTQVTVTS | high polyreactivity
